“Also recorded” adds a separate entry of the source.
Key:
Jurkat cells [1] = experiment: AZT sensitivity of LV-tmpk-transduced Jurkat cells (MTT cell viability assay); assay type: cell-based, human; conditions: for cell viability upon addition of AZT (in words), Example 15: clonal Jurkat cells, AZT up to 1 mM, 4 days
Experimental: Transduced Jurkat cells and the single-cell clones were seeded in 96 well plates (2×10^5/well) in 200 μl of medium containing increasing concentrations of AZT (0, 1, 10 and 100 μM). The medium was changed daily. […] Data are expressed as mean±standard error of mean (SEM).
To examine the AZT-mediated celikilling activity of tmpk cDNA, each of transduced cells were incubated with the increasing concentration of AZT. After incubating both non-transduced and LV-transduced cells with AZT for […], cell viability was determined using MTT assay (FIG. 4A).
Transduced Jurkat cells and single-cell clones were seeded in 96 well plates (2×10^5 cells/well) in 200 μl of the RPMI medium described above with increasing concentrations of AZT (0, 0.1, 1, 10, 100 μM, and 1 mM). The medium was changed daily. After 4 days of culture, cell viability was determined by using Cell Titer 96 Aqueous One Solution Cell Proliferation Assay kit (Promega, Madison, Wis.).

Jurkat cells [2] = experiment: AZT sensitivity in LV-TMPK (Lentigen) transduced Jurkat cells; assay type: cell-based, human; conditions: increasing concentrations of AZT
Experimental: The function of tmpk was tested by assessing sensitivity to AZT (FIG. 21).

Jurkat cells [3] = experiment: HPLC determination of intracellular AZT metabolites in cells treated with 100 μM AZT; assay type: cell-based, human
Experimental: The cells were cultured in the presence of 100 μM AZT for 36 hrs. 10^7 cells were homogenized by sonication in 100 μl of 5% (w/v) trichloroacetic acid. The supernatant is collected after homogenate had been centrifuged at 10,000×g for 15 min at 4° C. The trichloroacetic acid was removed by extraction with an equal volume of 20% tri-n-octylamine in pentane. The neutralized aqueous fraction is directly injected into HPLC. Separation of AZT and its metabolites was performed on a C18 column (Waters) with a mobile phase composed of 0.2 M phosphate buffer containing 4 mM tetrabutylammonium hydrogen sulfate (pH 7.5) and acetonitrile in the ratio of 97:3 (v/v). The mobile phase was pumped at a flow rate of 1.5 ml/min. The UV absorbance was monitored at 270 nm. Five million cell equivalents were injected and analyzed in triplicate.
Cells were cultured in the presence of 100 μM AZT for 36 h. 10^7 cells were homogenized by sonication in 100 μl of 5% (w/v) trichloroacetic acid (TCA). The supernatant was collected after centrifugation at 10,000×g for 15 min at 4° C. TCA was removed by extraction with an equal volume of 20% tri-n-octylamine in pentane. The neutralized aqueous fraction was directly injected into the HPLC machine (Waters, Milford. MA). Separation of AZT and its metabolites were performed on a C18 column (Waters), with a mobile phase composed of 0.2 M phosphate buffer containing 4 mM tetrabutylammonium hydrogen sulfate (pH 7.5) and acetonitrile in the ratio of 97:3 (v/v)^48 at a flow rate of 1.5 ml/min. The UV absorbance was monitored at 270 nm. Standards for each AZT-metabolite (AZT-MP, AZT-DP, and AZT-TP) were purchased from Moravek Biochemicals (Brea, Calif.). Five million cell equivalents were injected and analyzed in triplicate.

Jurkat cells [4] = experiment: Activation of caspase 3 by AZT (FITC-DEVD-FMK, flow cytometry); assay type: cell-based, human; conditions: clonal Jurkat cells, 100 μM AZT, 4 days
Experimental: (§1) Transduced cells […] were treated with 100 μM AZT for 4 days or left untreated. To detect changes in the mitochondrial inner membrane potential, the cells were incubated with 5,5′,6,6′-tetrachloro-1,1′,3,3′-tetraethylbenzimidazolylcarbocyanine iodide (JC-1, Molecular Probes Inc.) for 30 min at 37° C., and were then analyzed using a FACS Calibur. The activation of caspase-3 in cells was examined using the FACS Calibur following incubation with an FITC-labeled caspase 3 inhibitor peptide (FITC-DEVD-FMK, Calbiochem, San Diego, Calif.) for 1 hr at 37° C.

K562 cells = experiment: Growth of transduced K562 cells xenografted into AZT-treated NOD/SCID mice; assay type: in vivo; conditions: for tumor size / final tumor volume: transduced K562 cells sc in NOD/SCID mice, four and a half weeks past injection
Experimental: Female or male 5 to 8-week-old non-obese diabetic/severe combined immunodeficient (NOD/SCID) mice were purchased from Jackson Laboratory. Lentivirally-transduced or non-transduced K562 cells (20×10^6 cells) were resuspended in 0.5 mL Dulbecco's phosphate-buffered saline (D-PBS) per inoculum and injected subcutaneously (SC) into the right flanks of recipient mice. AZT treatment, which was administered intraperitoneally (IP) at the dose of 2.5 mg/kg/day, was started one day after injection and conducted for 14 days. In vivo tumor cell growth was monitored by measuring tumor size for up to 32 days post-inoculations. All experimental data were reproduced at least twice.
Transduced K562 cells were affinity-purified by MACS using magnetic beads conjugated with an anti-human CD19 monoclonal antibody (Miltenyi Biotec Inc., Auburn, Calif.). The purity of the cells following isolation was evaluated by FACS Calibur. Non-obese diabetic/severe combined immunodeficiency (NOD/SCID) mice (5 to 8-weeks old, purchased from Jackson Laboratories, Bar Harbor, Me.) were maintained at the Animal Resource Centre at the Princess Margaret Hospital (Toronto, ON, Canada). The entire animal experimental procedure followed a protocol approved by the Animal Care Committee of the UHN. Experimental groups consisted of male and female NOD/SCID mice injected with 2×10^7 K562 cells (resuspended in 0.5 mL D-PBS; Oxoid, Basingstoke, England) that were either lentivirally-transduced (n=10 for each LV) or non-transduced (NT) (n=10). Injections were performed subcutaneously (sc) into the dorsal right flanks of recipient mice as previously described^49. One day after injection of the cells, half of the mice in each group (n=5) began receiving daily AZT injections, administered intraperitoneally (ip) at a dose of 2.5 mg/kg/day for 14 days. Tumor growth was measured by caliper and calculated as 0.5×length×width^2 (in mm^3) for up to […].

Jurkat cells [5] = experiment: Loss of mitochondrial membrane potential after AZT (JC-1 staining, flow cytometry); assay type: cell-based, human; conditions: transduced Jurkat cells, 100 μM AZT
Experimental: Cells (10^6 cells) treated with (shown (+) in figure) or without (−) 100 μM AZT were stained with JC-1 for […] at 37° C., and then were analyzed by flow cytometry. ***, P<0.001, n=3.
as §1

Jurkat cells [6] = experiment: Induction of apoptosis by 100 μM AZT in LV-tmpk-transduced Jurkat cells (annexin V staining); assay type: cell-based, human; conditions: 4 days; for early apoptotic cell index in response to AZT treatment: transduced Jurkat cells, n=3
Experimental: Cells were seeded in 24 well plates (10^6/well) in 1 ml of medium with or without 100 μM of AZT. The medium was changed daily. After 4 days of culture, induction of apoptosis in the cells were analyzed by annexin-V staining according to the manufacturer's protocol (Annexin V-APC: BD Pharmingen). **, P<0.01, n=3. Data are expressed as mean±SEM.
(§2) For evaluation of the induction of apoptosis, treated Jurkat clonal cells were stained with Annexin V. Briefly, cells were seeded in 24 well plates (10^6 cells/well) in 1 ml of medium with or without 100 μM AZT. After 4 days of culture, Annexin V staining was performed according to the manufacturer's protocol (Annexin V-APC: BD Pharmingen). For testing whether AZT-mediated cell killing depends on the cellular proliferation, indirubin-3′-monoxime (final concentration 5 μM, Sigma-Aldrich, St. Louis, Mo.) was added simultaneously with 100 μM AZT to the culture.
(§3) To simplify comparative studies a relative apoptotic index was calculated. Here data obtained was normalized by dividing results from AZT treated cells in each condition by the results obtained without added AZT. Values were reported as fold increases. Statistical significance between groups was calculated by ANOVA.

Jurkat cells [7] = experiment: AZT-induced apoptosis/cell killing under cell cycle arrest with indirubin-3'-oxime; assay type: cell-based, human
Experimental: Cells were seeded in 24-well plates (10^6/well) in 1 ml of medium containing 0 (shown in AZT (−) in figure) or 100 μM of AZT (shown in AZT (+)) with or without 5 μM indirubin-3′-oxime (Figure (B) and (A), respectively). The medium was refreshed daily. After 2 days of culture, induction of apoptosis by AZT was analyzed by annexin V staining according to the manufacturer's protocol described. **, P<0.01, n=3. Data are expressed as mean±SEM.
as §2, §3

primary human T cells = experiment: Induction of apoptosis by AZT in transduced primary human T cells (annexin V); assay type: cell-based; conditions: 100 μM AZT, 4 days
Experimental: Human T lymphocytes were isolated from PBMNCs contained within heparinized blood obtained from healthy human donors by Ficoll-Hypaque (GE Healthcare) separations. Mouse T cells were prepared from B cell-depleted splenocyte preparations using goat anti-mouse IgG beads (BioMag, Qiagen, Mississauga, ON). T cells were activated by using anti-CD3 and anti-CD28 coated beads (PMID: 12855580) in a ratio of 1:3 (cell:beads) with 20 IU/mL of recombinant human interleukin 2 (R&D Systems, Minneapolis, Minn.) for 3 days. Cells were infected with concentrated virus stocks for 3 h on ice using an indicated MOI in the presence of 8 μg/ml protamine sulfate. Infected cells were then kept in culture for 5 days prior to evaluating gene transfer efficiency. Gene transfer efficiencies were measured by flow cytometry using a monoclonal anti-human CD19-antibody conjugated with phycoerythrin (PE) as described above. Induction of apoptosis following AZT-exposure was evaluated by Annexin V-staining as above.

[8] = Enzymatic activity of tmpk mutants for AZT-MP; assay type: biochemical, human

Molecule	IC50 (Jurkat cells [1]; Homo sapiens, 120 h, LV-tmpk mutant transduced Jurkat cells, AZT 0-100 μM, 5 days, read-out: IC50 of AZT for killing of transduced cells) [nM]	AZT sensitivity of transduced cells (in words) (Jurkat cells [2])	intracellular ratio of AZT-TP to AZT-MP in non-transduced cells (Jurkat cells [3]; non-transduced Jurkat cells, 100 μM AZT for 36 h)	activation of caspase 3 by AZT (in words) (Jurkat cells [4])	tumor growth under AZT (in words), Example 8/10 (K562 cells; transduced K562 cells in NOD/SCID mice, AZT 2.5 mg/kg for two weeks)	tumor size / final tumor volume (K562 cells; AZT 2.5 mg/kg for two weeks)	loss of mitochondrial (inner) membrane potential after AZT treatment (in words) (Jurkat cells [5])	early apoptotic cell index in response to AZT treatment (Jurkat cells [6]) [%]	cell viability upon addition of AZT (in words), Example 15 (Jurkat cells [1])	AZT sensitivity / cell killing of transduced cells (in words) (Jurkat cells [1]; transduced Jurkat cells, AZT up to 100 μM)	intracellular ratio of AZT-TP to AZT-MP (Jurkat cells [3]; LV-transduced Jurkat cells, 100 μM AZT for 36 h)	conversion of AZT-MP / accumulation of AZT-TP (in words) (Jurkat cells [3]; clonal Jurkat cells, 100 μM AZT 36 h)	apoptotic index with AZT in presence of indirubin-3'-monoxime (in words) (Jurkat cells [7]; clonal Jurkat cells, 100 μM AZT + 5 μM indirubin-3'-monoxime, 4 days)	cells killed by AZT after cell cycle arrest (Jurkat cells [7]; transduced Jurkat cells, indirubin-3'-oxime 5 μM, 100 μM AZT, 2 days) [%]	fold increase in percentage of activated caspase 3-positive cells by AZT (Jurkat cells [4]; normalized to no AZT) [fold]	fold increase of apoptotic index by AZT (primary human T cells) [fold]	tumor growth under daily AZT (in words), Example 15 (K562 cells; 2×10^7 transduced K562 cells sc in NOD/SCID mice, AZT 2.5 mg/kg/day ip for two weeks, day 14)	enzymatic activity / catalytic conversion compared to wild-type tmpk (in words) [8]	fold increase of apoptotic index by AZT-treatment (Jurkat cells [6]; clonal Jurkat cells, normalized to no AZT) [fold]	fold increase of apoptotic index by AZT in presence of indirubin-3'-monoxime (Jurkat cells [7]; clonal Jurkat cells, 100 μM AZT + 5 μM indirubin-3'-monoxime, 4 days, normalized to no AZT) [fold]
Cc1cn([C@H]2C[C@H](N=[N+]=[N-])[C@@H](CO)O2)c(=O)[nH]c1=O [AZT, Zidovudine, reference compound]	2000	dose dependent killing	0.02																	
wild-type tmpk: wild-type human thymidylate kinase overexpressed by LV transduction, comparator (protein, UniProt P23919 2-212, looked up) Thymidylate kinase: AARRGALIVLEGVDRAGKSTQSRKLVEALCAAGHRAELLRFPERSTEIGKLLSSYLQKKSDVEDHSVHLLFSANRWEQVPLIKEKLSQGVTLVVDRYAFSGVAFTGAKENFSLDWCKQPDVGLPKPDLVLFLQLQLADAAKRGAFGHERYENGAFQERALRCFHQLMKDTTLNWKMVDASKSIEAVHEDIRVLSEDAIRTATEKPLGELWK				slight, but significant, increase	no significant reduction in tumor volume	2000 mm^2	did not demonstrate a similar loss of mitochondrial inner membrane potential	6.2±0.3	limited cell killing	non-sensitive to AZT up to 100 μM; also recorded: unaffected by AZT up to 100 μM	0.10	no significant increases in the accumulation of AZT-TP	No significant increases	2						
F105Y: modified human thymidylate kinase (tmpk), F to Y mutation at amino acid position 105 (SEQ ID NO: 11, 21) (protein, UniProt P23919 2-212, looked up, variant F105Y) Thymidylate kinase: AARRGALIVLEGVDRAGKSTQSRKLVEALCAAGHRAELLRFPERSTEIGKLLSSYLQKKSDVEDHSVHLLFSANRWEQVPLIKEKLSQGVTLVVDRYAFSGVAYTGAKENFSLDWCKQPDVGLPKPDLVLFLQLQLADAAKRGAFGHERYENGAFQERALRCFHQLMKDTTLNWKMVDASKSIEAVHEDIRVLSEDAIRTATEKPLGELWK						100-300 mm^2	significant increase	40.7±1.7	minimally viable						4.6±0.1	4.0±0.3	strongly inhibited; also recorded: suppression of tumor growth	substantially increased catalytic conversion of AZT; also recorded: superior enzymatic activity	9.5±0.8	2.3±0.4
